Source: publication PMC3912023

Assays:
[1] = target: CorA, endogenously expressed, purified from Methylomicrobium album BG8 (Methylomicrobium album BG8); assay: SEC; calibrated Superdex 75 16/60 gel filtration, 40 mM Tris-HCl pH 8.0, 0.5 M NaCl; data not shown
[2] = target: Recombinant CorA (without the predicted signal peptide) (Methylomicrobium album BG8); assay: SEC; calibrated Superdex 75 16/60 gel filtration, 20 mM Tris-HCl pH 7.5, 1 mM CaCl2; data not shown

| stoichiometry N [1] | stoichiometry N [2] | Substance |
| --- | --- | --- |
| 2 | – | CorA, endogenously expressed, purified from Methylomicrobium album BG8 (natural protein) |
| – | 2 | Recombinant CorA (without the predicted signal peptide) (natural protein) |
